Data on 39 molecules can be found in patent US20260242436A1 (HANMI PHARM, published 2026).

The chains are these.
T1: interleukin-2 beta receptor (SYMANSIS, #4122H) to which a human immunoglobulin Fc region was linked (UniProt P14784 27-239, limits assumed)
T1 construct: Bought receptor-Fc, captured on anti-human immunoglobulin antibody; also called IL-2Rβ; CD122; not shown: human immunoglobulin Fc region
T1 sequence (looked up): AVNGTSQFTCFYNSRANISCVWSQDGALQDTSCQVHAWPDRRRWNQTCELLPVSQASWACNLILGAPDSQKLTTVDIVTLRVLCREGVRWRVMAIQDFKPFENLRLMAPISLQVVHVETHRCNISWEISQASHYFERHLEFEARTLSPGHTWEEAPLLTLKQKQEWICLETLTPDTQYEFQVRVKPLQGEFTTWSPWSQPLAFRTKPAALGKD

T2: interleukin-2 alpha receptor (SYMANSIS, #4102H) to which a human immunoglobulin Fc region was linked (UniProt P01589 22-213, limits assumed)
T2 construct: Bought receptor-Fc, captured on anti-human immunoglobulin antibody; also called IL-2Rα; CD25; not shown: human immunoglobulin Fc region
T2 sequence (looked up): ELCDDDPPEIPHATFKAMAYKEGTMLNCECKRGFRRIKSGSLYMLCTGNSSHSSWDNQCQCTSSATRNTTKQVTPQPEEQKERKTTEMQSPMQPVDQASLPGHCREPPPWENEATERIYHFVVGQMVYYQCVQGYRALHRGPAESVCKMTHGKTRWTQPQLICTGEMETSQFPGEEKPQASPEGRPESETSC

B1: interleukin-2 analog 71 (ligand)
chain: PTSSSTKKTQLQLEHLLLDLQMILNGINNYKNPKLTAMLTKKFYMPKKATELKHLQCLEEELKPLEEVLNLAQSKNFHFEPRDVVSNINVFVLELKGSETTFMCEYADETATIVEFLNRWITFSQSIISTLT
B2: interleukin-2 analog 99 (ligand)
chain: B1 chain with K41F, V84L
B3: interleukin-2 analog 17 (ligand)
chain: B1 chain with F79L, E80R, V84L, V85I, V90T, F91I
B4: interleukin-2 analog 59 (ligand)
chain: B1 chain with E80D, V84A, V85A, F91Y
B5: interleukin-2 analog 101 (ligand)
chain: B1 chain with A37R, K41F, V84L, V85A
B6: interleukin-2 analog 25 (ligand)
chain: B1 chain with L18F, F79L, E80R, V84L, V85I, F91I
B7: interleukin-2 analog 98 (ligand)
chain: B1 chain with K41F, V85I
B8: interleukin-2 analog 41 (ligand)
chain: B1 chain with A37R, K41F, E80D
B9: interleukin-2 analog 58 (ligand)
chain: B1 chain with E80D, V84A, V85A
B10: interleukin-2 analog 93 (ligand)
chain: B1 chain with A37R, K41F, D83E, V90T
B11: interleukin-2 analog 75 (ligand)
chain: B1 chain with Y44A
B12: interleukin-2 analog 13 (ligand)
chain: B1 chain with K41A, F79L, E80R, V84L, V85I, F91I
B13: interleukin-2 analog 16 (ligand)
chain: B1 chain with F79L, E80R, V84L, V85I, N87Q, F91I
B14: interleukin-2 analog 70 (ligand)
chain: B1 chain with F79Y, E80D
B15: interleukin-2 analog 88 (ligand)
chain: B1 chain with A37R, K41F, E60D
B16: interleukin-2 analog 57 (ligand)
chain: B1 chain with Y44A, Q73H, E80D, V84L, V85I
B17: interleukin-2 analog 55 (ligand)
chain: B1 chain with Q73H, E80D, V84L, V85I
B18: interleukin-2 analog 24 (ligand)
chain: B1 chain with L18V, F79L, E80R, V84L, V85I, F91I
B19: interleukin-2 analog 35 (ligand)
chain: B1 chain with K41F, F79L, E80R, V84L, V85I, F91I, L93F, L95F
B20: interleukin-2 analog 91 (ligand)
chain: B1 chain with A37R, K41F, E60Q
B21: interleukin-2 analog 94 (ligand)
chain: B1 chain with A37R, K41F, L93F, L95F
B22: interleukin-2 analog 18 (ligand)
chain: B1 chain with E60Q, F79L, E80R, V84L, V85I, F91I
B23: interleukin-2 analog 77 (ligand)
chain: B1 chain with K42E, E60R, E80D, V84W
B24: interleukin-2 analog 76 (ligand)
chain: B1 chain with K42Q, E60R, E80D, V85G
B25: interleukin-2 analog 14 (ligand)
chain: B1 chain with L18Y, F79L, E80R, V84L, V85I, F91I
B26: interleukin-2 analog 31 (ligand)
chain: B1 chain with K41F, F79L, E80R, D83E, V84L, V85I, F91I
B27: interleukin-2 analog 97 (ligand)
chain: B1 chain with K41F, E80D, V84L, V85I
B28: interleukin-2 analog 86 (ligand)
chain: B1 chain with L17R, Q21E, A37R, K41F
B29: interleukin-2 analog 73 (ligand)
chain: B1 chain with E80D, V84W
B30: interleukin-2 analog 34 (ligand)
chain: B1 chain with K41F, E80R, D83E, V84L, V85I, F91I
B31: interleukin-2 analog 92 (ligand)
chain: B1 chain with A37R, K41F, V90T
B32: interleukin-2 analog 74 (ligand)
chain: B1 chain with A37D, F79Y, E80D
B33: interleukin-2 analog 84 (ligand)
chain: B1 chain with L17R, Q21E, A37R, K41F, F79V, E80D, V84E
B34: interleukin-2 analog 105 (ligand)
chain: B1 chain with L17R, Q21E, A37R, K41F, E67D
B35: interleukin-2 analog 96 (ligand)
chain: B1 chain with A37R, K41F, V68G, Q73A
B36: interleukin-2 analog 100 (ligand)
chain: B1 chain with A37R, K41F, V84Y
B37: interleukin-2 analog 90 (ligand)
chain: B1 chain with A37R, K41W
B38: interleukin-2 analog 61 (ligand)
chain: B1 chain with F79Y, E80D, V84G, F91Y
B39: interleukin-2 analog 95 (ligand)
chain: B1 chain with A37R, K41F, V68G

Substitutions are numbered along the chain they refer to.

One assay has as its target T1, interleukin-2 beta receptor (SYMANSIS, …). Briefly: SPR (Biacore T200); receptor-Fc captured on anti-human Ig CM5 chip, analog flowed; relative to analog 1 = 100%. The method, then:
(§1) In order to measure the binding affinities of the interleukin-2 analogs obtained in Example 4 for each of interleukin-2 alpha and beta receptors, surface plasmon resonance (SPR, BIACORE T200, GE Healthcare) was used. The binding affinities of the prepared analogs for the alpha and beta receptors were measured, and the binding affinity of each of the prepared analogs was compared with that of interleukin-2 analog 1 (aldesleukin).
(§2) First, an anti-human immunoglobulin antibody (Abcam, #ab97221) was immobilized to a CM5 chip (GE healthcare) to about 5,000 resonance unit (RU) through amine coupling, and then the interleukin-2 alpha receptor ([…], #4102H) or interleukin-2 beta receptor ([…], #4122H), to each of which a human immunoglobulin Fc region was linked, was bound to the immunoglobulin antibody using an antigen-antibody binding reaction and thus finally immobilized. Thereafter, the recombinant interleukin-2 analog prepared above was diluted with HBS-P+ buffer (Cytiva, BR100671) to various concentrations by serial dilution, and the diluted samples were allowed to flow through CM5 chips, to which the interleukin-2 receptors were finally immobilized, to measure the binding affinity of each interleukin-2 receptor. […] Upon the completion of the measurement, the binding affinity of the receptor was evaluated according to the 1:1 binding fitting model in the Biaevaluation program.
In the case of B1, the “Relative binding affinity (%)” value is 17100%.

As for B2, the “Relative binding affinity (%)” value is 1510%. As for B3, the “Relative binding affinity (%)” value was 9.4%.

Consider B4, for which the “Relative binding affinity (%)” value is 1530%. As for B5, the “Relative binding affinity (%)” value was determined as 113%. As to B6, the “Relative binding affinity (%)” value was 21.7%. Take B7: the “Relative binding affinity (%)” value stood at 11100%. In the case of B8, the “Relative binding affinity (%)” value amounted to 22800%. Turning to B9, the “Relative binding affinity (%)” value is 7770%. As for B10, the “Relative binding affinity (%)” value was found to be 697%. Regarding B11, the “Relative binding affinity (%)” value is 9570%. The same measure, in the same setting: the result for B12 reads 149%. B13: the “Relative binding affinity (%)” value was 1260%. As to B14, the “Relative binding affinity (%)” value was determined as 10200%.

On to B15, for which the “Relative binding affinity (%)” value was found to be 13900%. As to B16, the “Relative binding affinity (%)” value amounted to 2570%. Same read-out and setting: then B17, with 3030%. Take B18: the “Relative binding affinity (%)” value stood at 37.9%. Take B19: the “Relative binding affinity (%)” value was 233%. On the same count and under the same terms, then B20, with 7360%; and B21, with 35.5%; and B22, with 35.3%. The same measure, in the same setting: then B23, with 644%. Turning to B24, the “Relative binding affinity (%)” value amounted to 1040%.

Take B25: the “Relative binding affinity (%)” value turned out to be 130%.

B26: the “Relative binding affinity (%)” value turned out to be 236%. For the molecule B27, the “Relative binding affinity (%)” value worked out at 3020%.

B28: the “Relative binding affinity (%)” value was 18700%.

Consider B29, for which the “Relative binding affinity (%)” value is 1590%. On the same count and under the same terms, then B30, with 322%; and B31, with 1510%; and B32, with 8150%. For B33, the “Relative binding affinity (%)” value stood at 711%.

Turning to B34, the “Relative binding affinity (%)” value was found to be 26800%. Turning to B35, the “Relative binding affinity (%)” value is 229%.

Consider B36, for which the “Relative binding affinity (%)” value came out at 2530%. As to B37, the “Relative binding affinity (%)” value turned out to be 12800%.

With B38, the “Relative binding affinity (%)” value is 1040%. For B39, the “Relative binding affinity (%)” value turned out to be 17.1%.

Another assay addresses T2, interleukin-2 alpha receptor (SYMANSIS, …). Described as above. The method, then:
as §1, §2
In the case of B2, the “Relative binding affinity (%)” value worked out at 19.9%. Take B3: the “Relative binding affinity (%)” value stood at 29.6%. The same measure, in the same setting: the result for B5 reads 24.7%; that for B7, 7.7%. As for B8, the “Relative binding affinity (%)” value was 121%. Same read-out and setting: then B10, with 92.8%; and B12, with 1.1%; and B13, with 0.2%. On the same count and under the same terms, the result for B15 reads 102%.

In the case of B19, the “Relative binding affinity (%)” value was determined as 31.7%.

With B20, the “Relative binding affinity (%)” value stood at 7.9%. B26: the “Relative binding affinity (%)” value came out at 5%. For B27, the “Relative binding affinity (%)” value is 18.8%.

As for B28, the “Relative binding affinity (%)” value amounted to 71.1%. Turning to B30, the “Relative binding affinity (%)” value is 9.4%. As to B31, the “Relative binding affinity (%)” value was determined as 97.3%. In the case of B34, the “Relative binding affinity (%)” value amounted to 247%. Regarding B35, the “Relative binding affinity (%)” value came out at 14.9%.

With B36, the “Relative binding affinity (%)” value is 29.1%. Take B37: the “Relative binding affinity (%)” value was found to be 98.4%. Consider B39, for which the “Relative binding affinity (%)” value worked out at 10.7%.
